Like-named read-outs stand apart in the source and are kept apart here. Values belong to the molecule of their own block, whether it stands above or below them.
Assays:
[1] = target: ErbB2 on human breast cancer cells (MDA-MB-175, SK-BR-3) (human) (UniProt P04626); experiment: cell-based or functional assay
[2] = target: ErbB receptor(s) on MCF7 cells; experiment: cell-based or functional assay
[3] = target: T1, ErbB4-immunoadhesin (ErbB4-IgG fusion, G640 ErbB4-(TR)-DKTH224 VH) (human, UniProt Q15303 26-651; P01857 104-330 = IgG part); experiment: competitive displacement of ^125I-HRGβ1(177-244) (0.23 nM) from ErbB4-IgG captured on goat-anti-human antibody coated wells
T1 construct: extracellular domain;domain: hinge domain of the immunoglobulin onward; also called H4-IgG; ErbB4 immunoadhesins
T1 sequence (Q15303 other isoform, or with tags, fused parts or gaps limits assumed): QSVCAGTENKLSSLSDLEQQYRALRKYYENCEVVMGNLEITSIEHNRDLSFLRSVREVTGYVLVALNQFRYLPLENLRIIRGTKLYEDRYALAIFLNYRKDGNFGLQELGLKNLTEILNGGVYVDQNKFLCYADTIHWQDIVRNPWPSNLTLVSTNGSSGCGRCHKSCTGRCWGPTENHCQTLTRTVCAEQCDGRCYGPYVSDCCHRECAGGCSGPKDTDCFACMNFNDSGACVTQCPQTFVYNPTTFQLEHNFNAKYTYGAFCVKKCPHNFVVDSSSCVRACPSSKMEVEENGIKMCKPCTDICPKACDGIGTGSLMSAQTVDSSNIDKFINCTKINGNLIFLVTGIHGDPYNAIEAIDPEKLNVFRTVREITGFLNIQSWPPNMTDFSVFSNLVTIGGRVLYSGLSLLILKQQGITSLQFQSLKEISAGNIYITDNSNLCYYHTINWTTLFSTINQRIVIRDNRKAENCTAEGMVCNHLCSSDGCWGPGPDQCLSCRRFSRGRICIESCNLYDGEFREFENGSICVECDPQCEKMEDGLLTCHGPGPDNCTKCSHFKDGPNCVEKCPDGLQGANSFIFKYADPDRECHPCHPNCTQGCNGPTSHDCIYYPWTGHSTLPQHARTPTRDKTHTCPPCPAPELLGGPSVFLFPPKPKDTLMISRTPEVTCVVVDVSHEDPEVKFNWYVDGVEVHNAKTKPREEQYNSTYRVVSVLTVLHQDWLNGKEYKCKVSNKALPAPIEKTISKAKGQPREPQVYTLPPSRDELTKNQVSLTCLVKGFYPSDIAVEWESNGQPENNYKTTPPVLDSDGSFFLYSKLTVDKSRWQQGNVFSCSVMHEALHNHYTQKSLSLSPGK
Protocol: (§1) ¹²⁵I-HRG Binding Assay. Binding assays were performed in Nunc breakapart strip wells. Plates were coated at 4° C. overnight with 100 μl of 5 μg/ml goat-anti-human antibody (Boehringer Mannheim) in 50 mM carbonate buffer (pH 9.6). Plates were rinsed twice with wash buffer (PBS/0.05% Tween-20™) and blocked with 100 μl 1% BSA/PBS for 30 min. Buffer was removed and each well was incubated with 15 ng IgG fusion protein in 1% BSA/PBS under vigorous shaking for 1.5 hours. Plates were rinsed three times with wash buffer and competitive binding was carried out by adding various amounts of γ-HRG and ¹²⁵I-HRGβ1 under vigorous shaking. After incubation for 1.5–2 hours, wells were rinsed three times with wash buffer, drained and individual wells were counted using a 100 Series Iso Data γ-counter.
(§2) Bio/Technology 11:187–193 (1993)). Under those conditions trxγ-HRG accumulated in inclusion bodies from which the recombinant protein was isolated. Following purification, the protein was sulfitolyzed and then refolded by the addition of cysteine. The interaction of γ-HRG with the heregulin receptors ErbB3 and ErbB4 was examined. […] Cells were treated with various amounts of γ-HRG and tyrosine kinase activity was determined using immunoblotting with anti-phosphotyrosine antibody.

[4] = target: ErbB receptor(s) on MCF7 cells; experiment: cell-based or functional assay; remark: listed apart in the source
[5] = target: T2, ErbB3-immunoadhesin (ErbB3-IgG fusion, L636 ErbB3-(TR)-DKTH224 VH) (human, UniProt P21860 20-643; P01857 104-330 = IgG part); experiment: competitive displacement of ^125I-HRGβ1(177-244) (0.23 nM) from ErbB3-IgG captured on goat-anti-human antibody coated wells
T2 construct: extracellular domain;domain: hinge domain of the immunoglobulin onward; Made in HEK-293 cells, purified on Protein A; also called ErbB3 immunoadhesins
T2 sequence (P21860 other isoform, or with tags, fused parts or gaps limits assumed): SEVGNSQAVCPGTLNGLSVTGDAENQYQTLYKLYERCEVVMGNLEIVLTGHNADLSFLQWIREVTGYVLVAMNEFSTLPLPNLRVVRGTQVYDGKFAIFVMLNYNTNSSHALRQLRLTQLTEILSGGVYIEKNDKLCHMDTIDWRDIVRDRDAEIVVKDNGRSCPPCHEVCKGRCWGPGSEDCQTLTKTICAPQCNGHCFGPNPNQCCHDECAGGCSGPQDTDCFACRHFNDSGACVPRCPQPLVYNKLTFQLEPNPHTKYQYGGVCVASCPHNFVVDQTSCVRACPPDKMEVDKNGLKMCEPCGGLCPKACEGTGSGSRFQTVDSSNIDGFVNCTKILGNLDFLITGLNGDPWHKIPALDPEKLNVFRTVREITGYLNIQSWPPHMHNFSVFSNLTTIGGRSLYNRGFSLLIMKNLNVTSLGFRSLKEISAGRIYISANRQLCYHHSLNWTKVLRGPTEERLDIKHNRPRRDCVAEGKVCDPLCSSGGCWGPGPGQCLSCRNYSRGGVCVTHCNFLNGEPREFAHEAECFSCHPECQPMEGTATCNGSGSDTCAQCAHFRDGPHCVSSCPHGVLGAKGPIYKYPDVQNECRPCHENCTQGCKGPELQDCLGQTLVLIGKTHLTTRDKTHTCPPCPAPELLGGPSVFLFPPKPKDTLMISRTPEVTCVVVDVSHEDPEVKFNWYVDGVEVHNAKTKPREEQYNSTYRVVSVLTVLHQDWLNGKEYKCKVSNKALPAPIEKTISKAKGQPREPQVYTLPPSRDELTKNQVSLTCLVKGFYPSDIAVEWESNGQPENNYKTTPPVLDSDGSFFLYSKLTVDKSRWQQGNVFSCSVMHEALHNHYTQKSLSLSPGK
Protocol: as §1, §2

- growth inhibition of SK-BR-3 cells (crystal violet staining) [1]: 66%
Molecule: anti-ErbB2 monoclonal antibody 4D5

- EC50 of tyrosine phosphorylation in MCF7 cells [2]: 0.06 nM
Molecule: EGF-like domain of HRGβ1(177-244), expressed in E. coli (from UniProt Q02297 177-244) (ligand)

- EC50 [3]: 13.3 nM
- EC50 of tyrosine phosphorylation in MCF7 cells [4]: 0.06 nM
- EC50 [5]: 19 nM
B1: trxγ-HRG (amino acids 455-768), N-terminal truncated γ-HRG thioredoxin fusion protein (ligand)
chain: QVFIDHPVHLKFNVSLGKAALVGIYGRKGLPPSHTQFDFVELLDGRRLLTQEARSLEGTPRQSRGTVPPSSHETGFIQYLDSGIWHLAFYNDGKESEVVSFLTTAIALPPRLKEMKSQESAAGSKLVLRCETSSEYSSLRFKWFKNGNELNRKNKPQNIKIQKKPGKSELRINKASLADSGEYMCKVISKLGNDSASANITIVESNEIITGMPASTEGAYVSSESPIRISVSTEGANTSSSTSTSTTGTSHLVKCAEKEKTFCVNGGECFMVKDLSNPSRYLCKCPNEFTGDRCQNYVMASFYSTSTPFLSLPE
notes: The results text calls it simply γ-HRG; also called recombinant γ-HRG; bacterial expressed truncated γ-HRG; not shown: N-terminal thioredoxin encoded by the pET-32a TRX fusion vector (Novagen); vector-encoded residues of pET32a between thioredoxin and the BamHI insertion site are not described
